# B1: human full-length transketolase (enzyme, UniProt P29401 1-623, looked up)
# chain: MESYHKPDQQKLQALKDTANRLRISSIQATTAAGSGHPTSCCSAAEIMAVLFFHTMRYKSQDPRNPHNDRFVLSKGHAAPILYAVWAEAGFLAEAELLNLRKISSDLDGHPVPKQAFTDVATGSLGQGLGAACGMAYTGKYFDKASYRVYCLLGDGELSEGSVWEAMAFASIYKLDNLVAILDINRLGQSDPAPLQHQMDIYQKRCEAFGWHAIIVDGHSVEELCKAFGQAKHQPTAIIAKTFKGRGITGVEDKESWHGKPLPKNMAEQIIQEIYSQIQSKKKILATPPQEDAPSVDIANIRMPSLPSYKVGDKIATRKAYGQALAKLGHASDRIIALDGDTKNSTFSEIFKKEHPDRFIECYIAEQNMVSIAVGCATRNRTVPFCSTFAAFFTRAFDQIRMAAISESNINLCGSHCGVSIGEDGPSQMALEDLAMFRSVPTSTVFYPSDGVATEKAVELAANTKGICFIRTSRPENAIIYNNNEDFQVGQAKVVLKSKDDQVTVIGAGVTLHEALAAAELLKKEKINIRVLDPFTIKPLDRKLILDSARATKGRILTVEDHYYEGGIGEAVSSAVVGEPGITVTHLAVNRVPRSGKPAELLKMFGIDRDAIAQAVRGLITKA
# notes: human transketolase (TKT, EC 2.2.1.1), full length, residues 1-623, expressed from a synthetic codon-optimized tkt gene in pET28a; Expressed and purified by the same protocol as TKTΔ38; also called TKT; full-length TKT; source: E. coli BL21*, purified (Ni-NTA, desalting column)
# Target: the molecule itself
# Assay: SEC; analytical gel filtration, Superdex 200 10/30, 200 µL of 4 mg/mL protein in 50 mM glycyl-glycine pH 7.6, 500 mM NaCl, 6°C; apparent masses estimated from protein standards; semiquantitative
protein,measurement,value
B1,stoichiometry N,2

# — paper PMC3485151, “A Δ38 Deletion Variant of Human Transketolase as a Model of Transketolase-Like Protein 1 Exhibits No Enzymatic Activity” (PLoS ONE, 2012)
